Measured values taken from publication PMC12703665, “A Trifunctional, Rare-Earth Theranostic Chelator Platform to Enable Diagnostic Nuclear Imaging, Surgical Resection, and Radiotherapy” (Journal of the American Chemical Society, 2025).

Columns and labels:
in vivo = details: male, athymic nude, mouse, intravenous, total radioactivity, 2 h post injection, n = 4
Description: (§1) For in vivo evaluation, athymic nude mice-bearing bilateral PC-3 PIP/flu (PSMA^+/PSMA^–) tumor xenografts were used (Figure ).
(§2) 5.1.1 Urine metabolite analysis
(§3) Metabolite analysis was performed by analyzing aliquots of 100 µL of mouse urine collected during biodistribution studies. If the collected urine volume was less than 100 µL, 1X DPBS was added in order to bring it up to a final volume of 100 µL. In cases where the radioactivity present in urine decayed to levels too low for detection by HPLC, fractions eluted from the radioHPLC were collected every 30 seconds, and the amount of radioactivity was estimated via gamma counting (Hidex Automatic Gamma Counter). The chromatogram was then reconstructed by plotting the recorded counts per minute recorded for each fraction […]
(§4) 5.2 In vitro optical imaging
(§5) Tumor tissues were harvested from male, nude, athymic mice bearing xenografts from PC3-PIP (PSMA+) and PC3-flu (PSMA-) were fixed for (24) hours in 10% neutral buffered formalin, processed and embedded into paraffin blocks. Tissues were sectioned at 5µm, dried and then deparaffinized with a 25-minute oven bake at 60°C, followed by a series of xylene and alcohol washes
(§6) Antigens were prepared in PerkinElmer’s 1X Antigen Retrieval pH 9.0 (AR900250ML) for 8 minutes in the microwave. Tissue sections were blocked with 1X Antibody Diluent/Block buffer (Akoya).
(§7) Ab-PSMA, natEu-pepa-pic2-C-Hex-KuE and DAPI staining.
(§8) Tissues were stained with Ab-PSMA (Ventana 760-6076; 11.75 µg/mL; 100uL per slide) for 30 minutes at room temperature. Slides were washed with TBS-T and secondary goat anti-rabbit was applied for 10 minutes at room temperature. Slides were washed with TBS-T and Akoya’s Opal dye 520 was applied for 10 minutes at room temperature. Antigen retrieval and blocking steps were performed again.
(§9) An aqueous solution of natEu-pepa-pic2-C-Hex-KuE (10 µM) was diluted at 1:1 with 1X Diluent/Block (Akoya) and 100 µL were applied per slide for 2 hours at room temperature. For DAPI staining, DAPI working solution (Akoya) was applied for 10 minutes at room temperature before mounting with ProLong™ Gold Antifade Mountant. Slides were imaged by Nuance Multispectral Scope at 20x objective.
(§10) 5.3 In vivo biodistribution in PSMA +/- mice models, PET-CT and SPECT imaging.
(§11) Male, nude, athymic mice were purchased from Jackson Laboratory. Ten days preceding the imaging study, mice were implanted with 1 × 10^6 cells (PC-3 PIP on the right, PC-3 flu on the left shoulder) in 100 µL of a 1:2 mixture of DPBS 1X/matrigel matrix subcutaneously.
(§12) A solution of 100 µL of labeled radiotracer was administered via tail vein injection into 8–10-week-old male nude mice (n = 4 per cohort) bearing PSMA+/- tumors.
(§13) For biodistribution studies, mice were euthanized at 2 hours (n=4) post-injection of the radio tracer. Organs were extracted, intestinal content removed, and activity assessed via a gamma counter. Biodistribution analysis values are represented as percentage of injected dose per gram of organ weight (% ID/g).

[1] = test system: PC-3 PIP/flu (PSMA+/PSMA–) tumor xenografts; details: biodistribution 2 h p.i. and SPECT 0.5-25 h
Description: Following radiochemical labeling and formulation in PBS, [^177Lu]­Lu-pepa-pic2-C-hex-KuE and [^161Tb]­Tb-pepa-pic2-C-hex-KuE were evaluated by single point biodistribution (2 h p.i.) and serial SPECT imaging at 0.5, 1, 1.5, 4, and 25 h in direct comparison with the clinically validated radiopharmaceutical [^177Lu]­Lu-PSMA-617 as well as [^161Tb]­Tb-PSMA-617 (Figure d–e, Supporting Information, Figures S52–S55, and Table S2).
Representative PET-CT (Y-86) or SPECT (Lu-177, Tb-161) images were acquired at different time points starting as early as 0.5 h and up to 25-hours post administration of radiotracer. Mice were initially anesthetized with isoflurane gas at 4% isoflurane in oxygen and maintained during scans at 2.0%. PET-CT and SPECT images were normalized to units of percentage of injected dose per cubic centimeter and presented as maximum intensity projected scan (MIPS) images.
PET-CT scans were acquired in a Siemens Inveon Hybrid MicroPET/CT Scanner (Siemens Medical Solutions USA, Inc., Knoxville, TN), and image processing and region of interest (ROI) analysis conducted using the Inveon Research Workstation analysis software. ROI analysis of the PET/CT images was used to estimate tracer uptake in major organs or tissues, and quantitative results are given as percentage of injected dose per cubic centimeter (%ID/cc). […]

[2] = 277 nm; ref 11 (SI); cited from earlier work
[3] = test system: PC-3 PIP/flu (PSMA+/PSMA–) tumor xenografts; experiment: in vivo; details: 2 h post injection, n = 4, listed as [161Tb]TbIII-pepa-pic2-C-Hex-KuE
Description: as §1, §2, §3, §4, §5, §6, §7, §8, §9, §10, §11, §12, §13

## COCCOCCOCCOc1ccc(C#Cc2cc(CN3CCN(Cc4cccc(C(=O)O)n4)CCN(Cc4cc(SC[C@H](N)C(=O)NCCCCCC(=O)NCCCC[C@H](NC(=O)N[C@@H](CCC(=O)O)C(=O)O)C(=O)O)cc(C(=O)O)n4)CC3)nc(C(=O)O)c2)cc1 [[177Lu]Lu-pepa-pic2-C-Hex-KuE, metal not drawn]
In vivo; PSMA+ tumor, Tumor +, PSMA+ tumor
  tissue uptake at 2 h: 4.57 ± 0.9 %ID/g
In vivo; blood
  tissue uptake at 2 h: 0.3 ± 0.1 %ID/g
In vivo; bone
  tissue uptake at 2 h: 0.25 ± 0.02 %ID/g
In vivo; heart
  tissue uptake at 2 h: 0.19 ± 0.07 %ID/g
In vivo; kidney
  tissue uptake at 2 h: 25.9 ± 8.51 %ID/g
In vivo; large intestine
  tissue uptake at 2 h: 0.49 ± 0.27 %ID/g
In vivo; liver
  tissue uptake at 2 h: 0.5 ± 0.05 %ID/g
In vivo; lungs
  tissue uptake at 2 h: 0.47 ± 0.26 %ID/g
In vivo; muscle
  tissue uptake at 2 h: 0.11 ± 0.05 %ID/g
In vivo; small intestine
  tissue uptake at 2 h: 0.33 ± 0.27 %ID/g
In vivo; spleen
  tissue uptake at 2 h: 0.53 ± 0.24 %ID/g
[1]
  uptake of activity in the PSMA-expressing tumor: persistent, statistically significant uptake

## PSMA-617
[2]
  ε277: 4268 M⁻¹ cm⁻¹

## COCCOCCOCCOc1ccc(C#Cc2cc(CN3CCN(Cc4cccc(C(=O)O)n4)CCN(Cc4cc(SC[C@H](N)C(=O)NCCCCCC(=O)NCCCC[C@H](NC(=O)N[C@@H](CCC(=O)O)C(=O)O)C(=O)O)cc(C(=O)O)n4)CC3)nc(C(=O)O)c2)cc1 [[161Tb]Tb-pepa-pic2-C-Hex-KuE, metal not drawn]
In vivo; PSMA- tumor, Tumor -
  tissue uptake at 2 h: 0.7 ± 1.59 %ID/g
[3]
  Blood: 0.45 ± 0.06 % ID/g
  Bone: 0.24 ± 0.03 % ID/g
  Heart: 0.21 ± 0.03 % ID/g
  Kidney: 17.89 ± 2.70 % ID/g
  Large Intestine: 0.98 ± 1.44 % ID/g
  Liver: 0.64 ± 0.09 % ID/g
  Lungs: 0.50 ± 0.07 % ID/g
  Muscle: 0.11 ± 0.03 % ID/g
  Small Intestine: 0.33 ± 0.37 % ID/g
  Spleen: 0.50 ± 0.09 % ID/g
[3]; PSMA+ tumor
  Tumor +: 7.33 ± 1.59 % ID/g
